According to the supplement of paper PMC7877785:
± gives the uncertainty stated by the source.

Assay: self-splicing fitness, log relative to wild type (ln ratio); higher = more splicing; Tetrahymena group I intron in knt gene, E. coli kanamycin selection, DiMSum; sequences stand for … in CUCUCU…GGAGGGAAAAGUUAUCAGGCAUGCACCUGGUAGCUAGUCUUUAAACCAAUAGAUUGCAUCGGUUUAAAAGGCAAGACCGUCAAAUUGCGGGAAAGGGGUCAACAGCCGUUCAGUACCAAGUCUCAGGGGAAACUUUGAGAUGGCCUUGCAAAGGGUAUGGUAAUAAGCUGACGGACAUGGUCCUAACCACGCAGCCAAGUCCUAAGUCAACAGAUCUUCUGUUGAUAUGGAUGCAGUUCACAGACUAAAUGUCGGUCGGGGAAGAUGUAUUCUUCUCAUAAGAUAUAGUCGGACCUCUCCUUAAUGGGAGCUAGCGGAUGAAGUGAUGCAACACUGGAGCCGCUGGGAACUAAUUUGUAUGCGAAAGUAUAUUGAUUAGUUUUGGAGUACUCGUGGUCG
Method in brief: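 A randomised library covering all eight P1ex-region intron nucleotides was built with the intron in the knt kanamycin-resistance gene on pET-22b(+) and held in E. coli BL21(DE3). Cells were grown overnight at 37°C or 30°C on LB agar, with or without 25 μg/mL kanamycin, plus 100 μg/mL carbenicillin, 50 μM IPTG and 0.2% rhamnose, and pooled colonies were amplicon-sequenced on an Illumina HiSeq 2500. DiMSum fitness is the error-weighted combination of wild-type-normalised replicate fold changes, kanamycin versus none.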

Sequence: GCCAAGCAAUAUUACGCGCU
- self-splicing fitness (ln) (30 °C): -1.33 ± 0.063
- self-splicing fitness (ln) (37 °C): -0.352 ± 0.082

Sequence: UUCUAGCAAUAUUACGUGGC
- self-splicing fitness (ln) (30 °C): -3.1 ± 0.24

Sequence: UCUAAGCAAUAUUACGUCGU
- self-splicing fitness (ln) (30 °C): -1.19 ± 0.1
- self-splicing fitness (ln) (37 °C): -0.695 ± 0.12

Sequence: AGUUAGCAAUAUUACGAUAC
- self-splicing fitness (ln) (30 °C): -2.6 ± 0.25
- self-splicing fitness (ln) (37 °C): -1.51 ± 0.24

Sequence: GUCGAGCAAUAUUACGCGGG
- self-splicing fitness (ln) (30 °C): -2.85 ± 0.15
- self-splicing fitness (ln) (37 °C): -1.94 ± 0.19

Sequence: UACAAGCAAUAUUACGAGUC
- self-splicing fitness (ln) (30 °C): -3.06 ± 0.11
- self-splicing fitness (ln) (37 °C): -1.93 ± 0.15

Sequence: GGACAGCAAUAUUACGCCUG
- self-splicing fitness (ln) (30 °C): -2.65 ± 0.15
- self-splicing fitness (ln) (37 °C): -0.758 ± 0.13

Sequence: GGUAAGCAAUAUUACGACUA
- self-splicing fitness (ln) (30 °C): 0.407 ± 0.12
- self-splicing fitness (ln) (37 °C): -0.574 ± 0.12

Sequence: GAUUAGCAAUAUUACGGUGA
- self-splicing fitness (ln) (30 °C): -1.31 ± 0.11
- self-splicing fitness (ln) (37 °C): -1.24 ± 0.098

Sequence: UCCGAGCAAUAUUACGAGAC
- self-splicing fitness (ln) (30 °C): -3.1 ± 0.32
- self-splicing fitness (ln) (37 °C): -2.81 ± 0.4

Sequence: AUACAGCAAUAUUACGAUAA
- self-splicing fitness (ln) (30 °C): -1.37 ± 0.099
- self-splicing fitness (ln) (37 °C): -0.374 ± 0.11

Sequence: AAUCAGCAAUAUUACGGAAU
- self-splicing fitness (ln) (30 °C): -0.646 ± 0.065
- self-splicing fitness (ln) (37 °C): -0.35 ± 0.075

Sequence: CCCAAGCAAUAUUACGAGCG
- self-splicing fitness (ln) (30 °C): -2.62 ± 0.12
- self-splicing fitness (ln) (37 °C): -2 ± 0.13

Sequence: UAUGAGCAAUAUUACGAGAC
- self-splicing fitness (ln) (30 °C): -2.85 ± 0.39
- self-splicing fitness (ln) (37 °C): -2.4 ± 0.32

Sequence: GGGAAGCAAUAUUACGUAGU
- self-splicing fitness (ln) (30 °C): -3.38 ± 0.18
- self-splicing fitness (ln) (37 °C): -2.18 ± 0.17

Sequence: UCCAAGCAAUAUUACGACUA
- self-splicing fitness (ln) (30 °C): -1.2 ± 0.12
- self-splicing fitness (ln) (37 °C): 0.12 ± 0.1

Sequence: GCGAAGCAAUAUUACGUGGA
- self-splicing fitness (ln) (30 °C): -1.9 ± 0.13
- self-splicing fitness (ln) (37 °C): -2.88 ± 0.21

Sequence: CUAAAGCAAUAUUACGCCCG
- self-splicing fitness (ln) (30 °C): 0.465 ± 0.11
- self-splicing fitness (ln) (37 °C): -0.0373 ± 0.12

Sequence: CCGAAGCAAUAUUACGGGUC
- self-splicing fitness (ln) (30 °C): -3.13 ± 0.22
- self-splicing fitness (ln) (37 °C): -3.03 ± 0.37

Sequence: CGUUAGCAAUAUUACGGACU
- self-splicing fitness (ln) (30 °C): -0.292 ± 0.08
- self-splicing fitness (ln) (37 °C): 0.16 ± 0.11

Sequence: UAACAGCAAUAUUACGGAGA
- self-splicing fitness (ln) (30 °C): -3.27 ± 0.21
- self-splicing fitness (ln) (37 °C): -1.1 ± 0.11

Sequence: CGUGAGCAAUAUUACGUUAU
- self-splicing fitness (ln) (30 °C): -4.44 ± 0.36
- self-splicing fitness (ln) (37 °C): -2.38 ± 0.18

Sequence: GGACAGCAAUAUUACGCUCU
- self-splicing fitness (ln) (30 °C): -2.19 ± 0.25

Sequence: GCAGAGCAAUAUUACGAACC
- self-splicing fitness (ln) (30 °C): -1.87 ± 0.32
- self-splicing fitness (ln) (37 °C): -1.24 ± 0.33

Sequence: GUCGAGCAAUAUUACGGGUG
- self-splicing fitness (ln) (30 °C): -4.13 ± 0.25
- self-splicing fitness (ln) (37 °C): -2.11 ± 0.19

Sequence: GCGCAGCAAUAUUACGCGUC
- self-splicing fitness (ln) (30 °C): -3.41 ± 0.16
- self-splicing fitness (ln) (37 °C): -2.41 ± 0.2

Sequence: CGUUAGCAAUAUUACGAUUU
- self-splicing fitness (ln) (30 °C): -2.51 ± 0.27
- self-splicing fitness (ln) (37 °C): -1.66 ± 0.25

Sequence: AUAUAGCAAUAUUACGAUAC
- self-splicing fitness (ln) (30 °C): -1.66 ± 0.35
- self-splicing fitness (ln) (37 °C): -0.756 ± 0.26

Sequence: AUGCAGCAAUAUUACGGCGC
- self-splicing fitness (ln) (30 °C): -0.143 ± 0.17
- self-splicing fitness (ln) (37 °C): 0.107 ± 0.18

Sequence: UAGUAGCAAUAUUACGCAAG
- self-splicing fitness (ln) (30 °C): -2.78 ± 0.45
- self-splicing fitness (ln) (37 °C): -1.25 ± 0.24

Sequence: CAUAAGCAAUAUUACGUGCA
- self-splicing fitness (ln) (30 °C): -3.45 ± 0.23
- self-splicing fitness (ln) (37 °C): -2.4 ± 0.18

Sequence: UGACAGCAAUAUUACGUUCG
- self-splicing fitness (ln) (30 °C): -0.885 ± 0.068
- self-splicing fitness (ln) (37 °C): -0.194 ± 0.075

Sequence: UAUCAGCAAUAUUACGCGUU
- self-splicing fitness (ln) (30 °C): -1.7 ± 0.13
- self-splicing fitness (ln) (37 °C): -1 ± 0.17

Sequence: CUAGAGCAAUAUUACGCGCA
- self-splicing fitness (ln) (30 °C): -1.95 ± 0.33
- self-splicing fitness (ln) (37 °C): -1.21 ± 0.35

Sequence: ACCUAGCAAUAUUACGAAGU
- self-splicing fitness (ln) (30 °C): -3.53 ± 0.19
- self-splicing fitness (ln) (37 °C): -2.72 ± 0.19

Sequence: GCUCAGCAAUAUUACGGGAA
- self-splicing fitness (ln) (30 °C): -0.173 ± 0.099
- self-splicing fitness (ln) (37 °C): 0.252 ± 0.16

Sequence: GGCAAGCAAUAUUACGGCAG
- self-splicing fitness (ln) (30 °C): -2.32 ± 0.14
- self-splicing fitness (ln) (37 °C): -1.15 ± 0.15

Sequence: AGGUAGCAAUAUUACGUGUA
- self-splicing fitness (ln) (30 °C): -2.265 ± 0.017
- self-splicing fitness (ln) (37 °C): -1.31 ± 0.033

Sequence: CUAUAGCAAUAUUACGUCGG
- self-splicing fitness (ln) (30 °C): -1.97 ± 0.2
- self-splicing fitness (ln) (37 °C): -1.33 ± 0.2

Sequence: CCGAAGCAAUAUUACGGUCU
- self-splicing fitness (ln) (30 °C): -2.93 ± 0.17
- self-splicing fitness (ln) (37 °C): -3.23 ± 0.25

Sequence: ACUAAGCAAUAUUACGGGAU
- self-splicing fitness (ln) (30 °C): -2.17 ± 0.073
- self-splicing fitness (ln) (37 °C): -1.3 ± 0.097

Sequence: GUGUAGCAAUAUUACGAGUC
- self-splicing fitness (ln) (30 °C): -1.74 ± 0.36
- self-splicing fitness (ln) (37 °C): -1.03 ± 0.3

Sequence: GUUGAGCAAUAUUACGUACA
- self-splicing fitness (ln) (37 °C): -2.37 ± 0.49

Sequence: ACGAAGCAAUAUUACGCUGU
- self-splicing fitness (ln) (30 °C): -2.16 ± 0.13
- self-splicing fitness (ln) (37 °C): -0.576 ± 0.11

Sequence: UUCCAGCAAUAUUACGCCUA
- self-splicing fitness (ln) (30 °C): -0.199 ± 0.076
- self-splicing fitness (ln) (37 °C): 0.206 ± 0.091

Sequence: CAAUAGCAAUAUUACGCUCG
- self-splicing fitness (ln) (30 °C): -0.561 ± 0.074
- self-splicing fitness (ln) (37 °C): -0.204 ± 0.092

Sequence: UGCCAGCAAUAUUACGGAGA
- self-splicing fitness (ln) (30 °C): -1.47 ± 0.096
- self-splicing fitness (ln) (37 °C): -0.852 ± 0.098

Sequence: GGCAAGCAAUAUUACGAGCC
- self-splicing fitness (ln) (30 °C): -2.21 ± 0.43
- self-splicing fitness (ln) (37 °C): -1.52 ± 0.44
